Results on ten molecules are retold here after publication PMC3317499, “Structural Insights into TIR Domain Specificity of the Bridging Adaptor Mal in TLR4 Signaling” (PLoS ONE, 2012).

For series [1], the target named is T1, GST-Mal-TIR (TIR domain of human Mal, residues 79-221, GST fusion) (human, UniProt P58753 79-221).
T1 construct: MyD88 adaptor-like protein (Mal, TIRAP), human, UniProtKB P58753, TIR domain residues 79-221; pGEX-6P-1 is a bacterial vector; also called wild type Mal-TIR purified as a GST fusion protein; source: E. coli (pGEX-6P-1), purified (glutathione Sepharose 4B, desalting)
Kind of series: pull-down; GST fusion protein and Myc-Mal-TIR mixed with glutathione Sepharose 4B beads, 4°C, 3 hours; washed four times with 20 mM potassium phosphate pH 6.4, 50 mM KCl, 0.1 mM EDTA, 10 mM DTT, 0.5 mM PMSF, 0.5% Triton X-100; SDS-PAGE and anti-Myc immunoblot. Particulars: both partners purified.

Series [2] has as its target T2, GST-TLR4-TIR (TIR domain of human TLR4, residues 670-839, GST fusion) (human, UniProt O00206 670-839).
T2 construct: Toll-like receptor 4 (TLR4), human, TIR domain residues 670-839; pGEX-6P-1 is a bacterial vector; source: E. coli (pGEX-6P-1), purified (glutathione Sepharose 4B, desalting)
T2 sequence (looked up): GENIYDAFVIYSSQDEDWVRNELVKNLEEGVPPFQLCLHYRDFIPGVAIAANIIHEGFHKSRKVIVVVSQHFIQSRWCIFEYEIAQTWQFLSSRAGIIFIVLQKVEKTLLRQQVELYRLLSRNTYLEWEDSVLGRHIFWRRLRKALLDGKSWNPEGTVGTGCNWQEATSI
The description is as above. Particulars: both partners purified.

For series [3], the target named is T3, GST-MyD88-TIR (TIR domain of human MyD88, residues 148-296, GST fusion) (human, UniProt Q99836 148-296).
T3 construct: Myeloid differentiation factor 88 (MyD88), human, TIR domain residues 148-296; pGEX-6P-1 is a bacterial vector; source: E. coli (pGEX-6P-1), purified (glutathione Sepharose 4B, desalting)
T3 sequence (Q99836 148-296): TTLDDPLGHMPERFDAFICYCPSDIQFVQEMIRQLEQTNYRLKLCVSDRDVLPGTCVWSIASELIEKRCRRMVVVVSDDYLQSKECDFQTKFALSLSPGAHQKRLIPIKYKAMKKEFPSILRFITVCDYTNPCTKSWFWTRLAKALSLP
Described as above. Particulars: both partners purified.

Series [4] concerns the molecule itself. As to the kind of experiment: crystal structure; Mal-TIR 79-221, space group P4(3)2(1)2, one molecule per asymmetric unit; dimers by crystallographic packing; 100 mM CHES pH 9.5, 150-300 mM NaCl, 10-20% glycerol, 10 mM DTT; 2.4 Å.

B1: Myc-Mal-TIR wild type (TIR domain of human MyD88 adaptor-like protein, residues 79-221, double-tagged with His6 and Myc) (domain or fragment, UniProt P58753 79-221, looked up)
chain: SSRWSKDYDVCVCHSEEDLVAAQDLVSYLEGSTASLRCFLQLRDATPGGAIVSELCQALSSSHCRVLLITPGFLQDPWCKYQMLQALTEAPGAEGCTIPLLSGLSRAAYPPELRFMYYVDGRGPDGGFRQVKEAVMRYLQTLS
notes: MyD88 adaptor-like protein (Mal, TIRAP), human, UniProtKB P58753, TIR domain residues 79-221; it replaced the S-tag, thioredoxin and the thrombin-cleavable segment of pET32a; also called wild-type Mal-TIR; TIRAP TIR domain; source: E. coli, purified (Ni-NTA, desalting)
With B1, the binding result in series [1], in series [2] and in series [3] was “binds” in each case.

B2: Mal-TIR (residues 79-221 of human Mal), crystallised form (domain or fragment, UniProt P58753 79-221, looked up)
chain: SSRWSKDYDVCVCHSEEDLVAAQDLVSYLEGSTASLRCFLQLRDATPGGAIVSELCQALSSSHCRVLLITPGFLQDPWCKYQMLQALTEAPGAEGCTIPLLSGLSRAAYPPELRFMYYVDGRGPDGGFRQVKEAVMRYLQTLS
notes: MyD88 adaptor-like protein (Mal, TIRAP), human, UniProtKB P58753, residues 79-221; The structure has disulfide bonds C89-C134 and C142-C174 and a DTT linking Cys91 and Cys157; A selenomethionine form was used for phasing; also called wild-type Mal-TIR; TIR domain of the human Mal molecule; source: E. coli BL21 (DE3) codon plus, purified (Ni-NTA, PreScission digestion, anion exchange)
With B2, the binding result in series [4] is “binds”.

B3: Myc-Mal-TIR D87A (domain or fragment, human, UniProt P58753 79-221, looked up)
chain: SSRWSKDYAVCVCHSEEDLVAAQDLVSYLEGSTASLRCFLQLRDATPGGAIVSELCQALSSSHCRVLLITPGFLQDPWCKYQMLQALTEAPGAEGCTIPLLSGLSRAAYPPELRFMYYVDGRGPDGGFRQVKEAVMRYLQTLS
notes: Mal (TIRAP), human, UniProtKB P58753, TIR domain residues 79-221; source: E. coli, purified (Ni-NTA, desalting)
As to B3, the binding result in series [1] was “binds”.

B4: Myc-Mal-TIR E108A (domain or fragment, human, UniProt P58753 79-221, looked up)
chain: SSRWSKDYDVCVCHSEEDLVAAQDLVSYLAGSTASLRCFLQLRDATPGGAIVSELCQALSSSHCRVLLITPGFLQDPWCKYQMLQALTEAPGAEGCTIPLLSGLSRAAYPPELRFMYYVDGRGPDGGFRQVKEAVMRYLQTLS
notes: as for B3
Consider B4, for which, in series [3], the binding result is “binds”.

B5: Myc-Mal-TIR R192A (domain or fragment, human, UniProt P58753 79-221, looked up)
chain: SSRWSKDYDVCVCHSEEDLVAAQDLVSYLEGSTASLRCFLQLRDATPGGAIVSELCQALSSSHCRVLLITPGFLQDPWCKYQMLQALTEAPGAEGCTIPLLSGLSRAAYPPELAFMYYVDGRGPDGGFRQVKEAVMRYLQTLS
notes: as for B3
In the case of B5, the binding result in series [1] is “binds”.

B6: Myc-Mal-TIR S180L (domain or fragment, human, UniProt P58753 79-221, looked up)
chain: SSRWSKDYDVCVCHSEEDLVAAQDLVSYLEGSTASLRCFLQLRDATPGGAIVSELCQALSSSHCRVLLITPGFLQDPWCKYQMLQALTEAPGAEGCTIPLLLGLSRAAYPPELRFMYYVDGRGPDGGFRQVKEAVMRYLQTLS
notes: Mal (TIRAP), human, UniProtKB P58753, TIR domain residues 79-221, natural variant S180L; also called Mal S180L; source: E. coli, purified (Ni-NTA, desalting)
For the molecule B6, the binding result in series [2] and in series [3] was “binds” each time.

B7: Myc-Mal-TIR F117A (domain or fragment, human, UniProt P58753 79-221, looked up)
chain: SSRWSKDYDVCVCHSEEDLVAAQDLVSYLEGSTASLRCALQLRDATPGGAIVSELCQALSSSHCRVLLITPGFLQDPWCKYQMLQALTEAPGAEGCTIPLLSGLSRAAYPPELRFMYYVDGRGPDGGFRQVKEAVMRYLQTLS
notes: as for B3
Turning to B7, in series [3], the binding result is given as “binds”.

B8: Myc-Mal-TIR D96A (domain or fragment, human, UniProt P58753 79-221, looked up)
chain: SSRWSKDYDVCVCHSEEALVAAQDLVSYLEGSTASLRCFLQLRDATPGGAIVSELCQALSSSHCRVLLITPGFLQDPWCKYQMLQALTEAPGAEGCTIPLLSGLSRAAYPPELRFMYYVDGRGPDGGFRQVKEAVMRYLQTLS
notes: as for B3
As for B8, the binding result in series [2] and in series [3] was “binds” throughout.

B9: Myc-Mal-TIR L165A (domain or fragment, human, UniProt P58753 79-221, looked up)
chain: SSRWSKDYDVCVCHSEEDLVAAQDLVSYLEGSTASLRCFLQLRDATPGGAIVSELCQALSSSHCRVLLITPGFLQDPWCKYQMLQAATEAPGAEGCTIPLLSGLSRAAYPPELRFMYYVDGRGPDGGFRQVKEAVMRYLQTLS
notes: as for B3
B9: the binding result in series [3] was “binds”.

B10: Myc-Mal-TIR D96N (domain or fragment, human, UniProt P58753 79-221, looked up)
chain: SSRWSKDYDVCVCHSEENLVAAQDLVSYLEGSTASLRCFLQLRDATPGGAIVSELCQALSSSHCRVLLITPGFLQDPWCKYQMLQALTEAPGAEGCTIPLLSGLSRAAYPPELRFMYYVDGRGPDGGFRQVKEAVMRYLQTLS
notes: Mal (TIRAP), human, UniProtKB P58753, TIR domain residues 79-221, natural variant D96N; source: E. coli, purified (Ni-NTA, desalting)
On to B10, for which the binding result in series [3] is “binds”.
